According to US20190008977A1 (ASCENDIS PHARMA GROWTH DISORDERS A S, published 2019):
Bridge positions count the residues as written; N and C are the ends. Side chains are listed from the residue outwards. Ends that are not written are not given here. * marks the point of attachment. Hexanoyl(6-maleimido) = O=C1C=CC(=O)N1CCCCCC(=O)*; reversible prodrug linker = not defined here

T1: NPR-B expressed endogenously on NIH-3T3 cells (Murine Embryo Fibroblast cell line) (mouse (endogenous in the murine NIH-3T3 …, UniProt Q6VVW5 17-1047))
T1 sequence (looked up): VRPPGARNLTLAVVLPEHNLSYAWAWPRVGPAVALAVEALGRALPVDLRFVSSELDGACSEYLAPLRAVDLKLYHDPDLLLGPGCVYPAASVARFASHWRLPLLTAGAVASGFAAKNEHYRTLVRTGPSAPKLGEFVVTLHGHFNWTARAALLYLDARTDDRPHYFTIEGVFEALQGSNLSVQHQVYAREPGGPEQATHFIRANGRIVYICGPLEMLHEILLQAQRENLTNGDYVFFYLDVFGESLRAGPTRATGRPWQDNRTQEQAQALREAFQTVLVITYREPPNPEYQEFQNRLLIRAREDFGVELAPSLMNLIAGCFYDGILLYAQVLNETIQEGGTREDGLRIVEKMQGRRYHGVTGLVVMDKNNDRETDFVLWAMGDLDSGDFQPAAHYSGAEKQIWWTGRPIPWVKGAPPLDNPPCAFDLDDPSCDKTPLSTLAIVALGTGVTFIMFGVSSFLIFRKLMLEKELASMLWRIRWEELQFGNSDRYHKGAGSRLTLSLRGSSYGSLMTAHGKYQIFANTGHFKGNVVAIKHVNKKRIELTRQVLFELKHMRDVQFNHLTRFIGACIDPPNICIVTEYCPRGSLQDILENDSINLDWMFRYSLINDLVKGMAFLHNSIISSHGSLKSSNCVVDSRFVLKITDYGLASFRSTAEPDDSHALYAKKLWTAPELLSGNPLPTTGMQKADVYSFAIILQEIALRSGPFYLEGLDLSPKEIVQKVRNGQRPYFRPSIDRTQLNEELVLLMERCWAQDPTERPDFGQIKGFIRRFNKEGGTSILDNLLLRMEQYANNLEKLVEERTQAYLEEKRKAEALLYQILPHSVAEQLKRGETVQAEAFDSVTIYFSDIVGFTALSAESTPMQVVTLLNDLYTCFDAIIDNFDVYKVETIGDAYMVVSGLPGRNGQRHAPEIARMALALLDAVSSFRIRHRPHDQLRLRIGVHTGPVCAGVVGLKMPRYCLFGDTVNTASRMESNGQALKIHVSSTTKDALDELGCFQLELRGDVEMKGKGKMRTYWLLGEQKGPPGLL

T2: permanent N-terminal CNP-34 PEG 5 kDa conjugate 14e
T2 chain: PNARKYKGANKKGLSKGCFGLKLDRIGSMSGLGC

T3: permanent N-terminal CNP-38 PEG 5 kDa conjugate 15e
T3 chain: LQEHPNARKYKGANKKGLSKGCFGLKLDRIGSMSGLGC

T4: permanent Lys26 CNP-38 PEG4x10 kDa conjugate 12g
T4 chain: T3 chain

B1: recombinant human Neutral Endopeptidase (NEP) (protein)
chain: YDDGICKSSDCIKSAARLIQNMDATTEPCTDFFKYACGGWLKRNVIPETSSRYGNFDILRDELEVVLKDVLQEPKTEDIVAVQKAKALYRSCINESAIDSRGGEPLLKLLPDIYGWPVATENWEQKYGASWTAEKAIAQLNSKYGKKVLINLFVGTDDKNSVNHVIHIDQPRLGLPSRDYYECTGIYKEACTAYVDFMISVARLIRQEERLPIDENQLALEMNKVMELEKEIANATAKPEDRNDPMLLYNKMTLAQIQNNFSLEINGKPFSWLNFTNEIMSTVNISITNEEDVVVYAPEYLTKLKPILTKYSARDLQNLMSWRFIMDLVSSLSRTYKESRNAFRKALYGTTSETATWRRCANYVNGNMENAVGRLYVEAAFAGESKHVVEDLIAQIREVFIQTLDDLTWMDAETKKRAEEKALAIKERIGYPDDIVSNDNKLNNEYLELNYKEDEYFENIIQNLKFSQSKQLKKLREKVDKDEWISGAAVVNAFYSSGRNQIVFPAGILQPPFFSAQQSNSLNYGGIGMVIGHEITHGFDDNGRNFNKDGDLVDWWTQQSASNFKEQSQCMVYQYGNFSWDLAGGQHLNGINTLGENIADNGGLGQAYRAYQNYIKKNGEEKLLPGLDLNHKQLFFLNFAQVWCGTYRPEYAVNSIKTDVHSPGNFRIIGTLQNSAEFSEAFHCRKNSYMNPEKKCRVW
B2: permanent Lys26 CNP-38 PEG 5 kDa conjugate 19e (peptide)
peptide: T3 chain
modifications: 5 kDa PEG stably attached through a maleimidohexanoyl group at the side chain of Lys26 (ring lysine); disulfide Cys22-Cys38

Tests used:
[1] = molecular target: T1, NPR-B expressed endogenously on NIH-3T3 …; assay: cell-based or functional assay
[2] = molecular target: T2, permanent N-terminal CNP-34 PEG 5 kDa …
[3] = molecular target: T3, permanent N-terminal CNP-38 PEG 5 kDa …
[4] = molecular target: T4, permanent Lys26 CNP-38 PEG4x10 kDa …
[5] = molecular target: T1, NPR-B expressed endogenously on NIH-3T3 …; assay: cell-based or functional assay; remark: listed apart in the source

Row | Binder | EC50 compound/EC50 CNP-38 (cGMP stimulation in NIH-3T3 cells, residual NPR-B activity) [1] [ratio] | also measured
1 | LQEHPNARKYKGANKKGLSKGCFGLK([reversible prodrug linker-branched PEG 2x20 kDa])LDRIGSMSGLGC (disulfide 22-38; reading uncertain) [reversible Lys26 CNP-38 PEG2x20 kDa conjugate 10f] | > 100 | –
2 | B1 | – | half life norm. [h] (in vitro NEP cleavage assay) [2]: Almost no proteolysis after 4 days.; half life norm. [h] (in vitro NEP cleavage assay) [3]: Almost no proteolysis after 4 days.; half life norm. [h] (in vitro NEP cleavage assay) [4]: Almost no proteolysis after 4 days.
3 | LQEHPNARKYKGANKKGLSKGCFGLK(branched PEG 4x10 kDa)LDRIGSMSGLGC (disulfide 22-38) [permanent Lys26 CNP-38 PEG4x10 kDa conjugate 12g] | > 100 | –
4 | LQEHPNARKYKGANKKGLSKGCFGLK([reversible prodrug linker-branched PEG 4x10 kDa])LDRIGSMSGLGC (disulfide 22-38; reading uncertain) [reversible Lys26 CNP-38 PEG4x10 kDa conjugate 11i] | > 100 | –
5 | {PEG 5 kDa-Hexanoyl(6-maleimido)}-LQEHPNARKYKGANKKGLSKGCFGLKLDRIGSMSGLGC (disulfide 22-38) [permanent N-terminal CNP-38 PEG 5 kDa conjugate 15e] | > 5 | –
6 | B2 | > 100 | –
7 | LQEHPNARKYKGANKKGLSKGCFGLKLDRIGSMSGLGC (disulfide 22-38) [Released CNP-38 (isolated by RP-HPLC after 7 d incubation of 11i under physiological conditions)] | – | EC50 compound/EC50 CNP-38 (cGMP stimulation in NIH-3T3 cells) [5]: 1 ratio
